This note sets out measurements from patent US20100285988A1 (Memorial Sloan Kettering, published 2010).

The target of experiment [1] is T1, PEN-2 (human, UniProt Q9NZ42 1-101).
T1 construct: Subunit of the γ-secretase complex in HeLa membrane
Description: photoaffinity labeling of HeLa membrane, streptavidin capture, western blot. (A western blot detects proteins with antibodies after separation by electrophoresis.)
Description: (§1) After the photolyzed membranes were solubilized, biotinylated proteins were captured, eluted and analyzed by western blotting with antibodies against biotin, PS1, nicastrin, PEN-2 and APH-1.

Experiment [2] concerns the target T2, APH-1a (human, UniProt Q96BI3 1-265, limits assumed).
T2 construct: Subunit of the γ-secretase complex in HeLa membrane
Described as above.
Description: as §1

Where no end group is shown, it is not given here. [ ]: non-standard residue; d: D form. Bpa = N[C@@H](Cc1ccc(C(=O)c2ccccc2)cc1)C(=O)O

B1: Aβ17-23BPA^20-biotin (peptide)
peptide: LVF[Bpa]AED-biotin
notes: used at 300 nM; also called biotinylated photoreactive peptide Aβ17-23; photoactive peptide
For B1, the binding result in experiment [1] and in experiment [2] was “no binding (tested: 300 nM)” throughout.
